± gives the standard deviation of the averaged measurements.
Assay: total protein half-life in vivo (active degradation + dilution); higher = more stable protein
[1] = E. coli NCM3722 delta-clpP delta-lon delta-hslV, growth: N-lim chemostat, doubling time 6 h
[2] = E. coli NCM3722 delta-hslV, growth: N-lim chemostat, doubling time 6 h
[3] = E. coli NCM3722 delta-lon, growth: N-lim chemostat, doubling time 6 h
[4] = E. coli NCM3722 delta-smpB, growth: N-lim chemostat, doubling time 6 h
[5] = wild type E. coli NCM3722, growth: C-lim chemostat, doubling time 3 h
[6] = wild type E. coli NCM3722, growth: C-lim chemostat, doubling time 6 h
[7] = wild type E. coli NCM3722, growth: C-lim chemostat, doubling time 12 h
[8] = wild type E. coli NCM3722, growth: N-lim chemostat, doubling time 6 h
[9] = wild type E. coli NCM3722, growth: N-lim chemostat, doubling time 12 h
[10] = wild type E. coli NCM3722, growth: P-lim chemostat, doubling time 6 h
[11] = wild type E. coli NCM3722, growth: P-lim chemostat, doubling time 12 h
[12] = E. coli NCM3722 delta-clpP, growth: N-lim chemostat, doubling time 6 h

Sequence | total protein half-life in vivo [1] [h] | total protein half-life in vivo [2] [h] | total protein half-life in vivo [3] [h] | total protein half-life in vivo [4] [h] | total protein half-life in vivo [5] [h] | total protein half-life in vivo [6] [h] | total protein half-life in vivo [7] [h] | total protein half-life in vivo [8] [h] | total protein half-life in vivo [9] [h] | total protein half-life in vivo [10] [h] | total protein half-life in vivo [11] [h] | total protein half-life in vivo [12] [h]
MDTKKIFKHIPWVILGIIGAFCLAVVALRRGEHISALWIVVASVSVYLVAYRYYSLYIAQKVMKLDPTRATPAVINNDGLNYVPTNRYVLFGHHFAAIAGAGPLVGPVLAAQMGYLPGTLWLLAGVVLAGAVQDFMVLFISSRRNGASLGEMIKEEMGPVPGTIALFGCFLIMIIILAVLALIVVKALAESPWGVFTVCSTVPIALFMGIYMRFIRPGRVGEVSVIGIVLLVASIYFGGVIAHDPYWGPALTFKDTTITFALIGYAFVSALLPVWLILAPRDYLATFLKIGVIVGLALGIVVLNPELKMPAMTQYIDGTGPLWKGALFPFLFITIACGAVSGFHALISSGTTPKLLANETDARFIGYGAMLMESFVAIMALVAASIIEPGLYFAMNTPPAGLGITMPNLHEMGGENAPIIMAQLKDVTAHAAATVSSWGFVISPEQILQTAKDIGEPSVLNRAGGAPTLAVGIAHVFHKVLPMADMGFWYHFGILFEALFILTALDAGTRSGRFMLQDLLGNFIPFLKKTDSLVAGIIGTAGCVGLWGYLLYQGVVDPLGGVKSLWPLFGISNQMLAAVALVLGTVVLIKMKRTQYIWVTVVPAVWLLICTTWALGLKLFSTNPQMEGFFYMASQYKEKIANGTDLTAQQIANMNHIVVNNYTNAGLSILFLIVVYSIIFYGFKTWLAVRNSDKRTDKETPYVPIPEGGVKISSHH | 5.48 ± 0.6 | 4.43 | 4.19 ± 0.26 | 5.39 ± 0.18 | > 4 | 4.24 | 6.86 | 5.42 ± 2.2 | 9.16 ± 0.46 | 5.57 ± 0.48 | 8.62 ± 0.6 | –
MDTPRPQLLDFQFHQNNDSFTLHFQQRLILTHSKDNPCLWIGSGIADIDMFRGNFSIKDKLQEKIALTDAIVSQSPDGWLIHFSRGSDISATLNISADDQGRLLLELQNDNLNHNRIWLRLAAQPEDHIYGCGEQFSYFDLRGKPFPLWTSEQGVGRNKQTYVTWQADCKENAGGDYYWTFFPQPTFVSTQKYYCHVDNSCYMNFDFSAPEYHELALWEDKATLRFECADTYISLLEKLTALLGRQPELPDWIYDGVTLGIQGGTEVCQKKLDTMRNAGVKVNGIWAQDWSGIRMTSFGKRVMWNWKWNSENYPQLDSRIKQWNQEGVQFLAYINPYVASDKDLCEEAAQHGYLAKDASGGDYLVEFGEFYGGVVDLTNPEAYAWFKEVIKKNMIELGCGGWMADFGEYLPTDTYLHNGVSAEIMHNAWPALWAKCNYEALEETGKLGEILFFMRAGSTGSQKYSTMMWAGDQNVDWSLDDGLASVVPAALSLAMTGHGLHHSDIGGYTTLFEMKRSKELLLRWCDFSAFTPMMRTHEGNRPGDNWQFDGDAETIAHFARMTTVFTTLKPYLKEAVALNAKSGLPVMRPLFLHYEDDAHTYTLKYQYLLGRDILVAPVHEEGRSDWTLYLPEDNWVHAWTGEAFRGGEVTVNAPIGKPPVFYRADSEWAALFASLKSI | 5.5 | 4.79 ± 0.52 | – | 4.78 ± 0.19 | 3.06 ± 0.37 | – | 12.6 ± 3.2 | 4.02 | 7.22 | 5.4 ± 0.092 | 10.4 ± 0.25 | 4.66 ± 0.079
MDVQQFFVVAVFFLIPIFCFREAWKGWRAGAIDKRVKNAPEPVYVWRAKNPGLFFAYMVAYIGFGILSIGMIVYLIFYR | 2.64 | 3.67 | – | 4.42 | – | 1.84 | – | – | – | 4.74 | 8.43 | –
MDWLAKYWWILVIVFLVGVLLNVIKDLKRVDHKKFLANKPELPPHRDFNDKWDDDDDWPKKDQPKK [Q2EET2] | 4.44 ± 0.075 | – | 5.94 ± 1.8 | 4.97 ± 0.94 | 3.28 ± 0.98 | 5.63 ± 0.88 | 6.37 | 5.06 | 9.68 ± 5.2 | 3.81 | 7.42 ± 0.16 | 4.57 ± 1.7
MDYEFLRDITGVVKVRMSMGHEVVGHWFNEEVKENLALLDEVEQAAHALKGSERSWQRAGHEYTLWMDGEEVMVRANQLEFAGDEMEEGMNYYDEESLSLCGVEDFLQVVAAYRNFVQQK [P0A8E5] | 4.89 ± 0.087 | 1.63 ± 0.034 | 2 ± 0.21 | 1.97 ± 0.039 | 2.18 ± 0.056 | 3.78 ± 0.4 | 6.328 ± 0.025 | 1.78 | 2.8 | 2.44 ± 0.26 | 4.45 ± 0.61 | –
MDYFTLFGLPARYQLDTQALSLRFQDLQRQYHPDKFASGSQAEQLAAVQQSATINQAWQTLRHPLMRAEYLLSLHGFDLASEQHTVRDTAFLMEQLELREELDEIEQAKDEARLESFIKRVKKMFDTRHQLMVEQLDNETWDAAADTVRKLRFLDKLRSSAEQLEEKLLDF [P0A6L9] | 4.89 ± 0.7 | 3.26 ± 0.27 | 4.06 ± 0.18 | 3.04 ± 0.18 | 2.9 ± 0.23 | 4.74 ± 0.099 | 9.84 ± 1 | 3.07 ± 0.24 | 4.57 ± 0.19 | 5.45 ± 0.78 | 9.39 ± 0.82 | 3.99 ± 0.75
MDYRKIIKEIGRGKNHARDLDRDTARGLYAHMLNGEVPDLELGGVLIALRIKGEGEAEMLGFYEAMQNHTIKLTPPAGKPMPIVIPSYNGARKQANLTPLLAILLHKLGFPVVVHGVSEDPTRVLTETIFELMGITPTLHGGQAQAKLDEHQPVFMPVGAFCPPLEKQLAMRWRMGVRNSAHTLAKLATPFAEGEALRLSSVSHPEYIGRVAKFFSDIGGRALLMHGTEGEVYANPQRCPQINLIDREGMRVLYEKQDTAGSELLPQAKDPETTAQWIERCLAGSEPIPESLKIQMACCLVATGEAATISDGLARVNQAF | 4.81 ± 0.7 | 4.41 ± 0.12 | 5.22 ± 0.37 | 4.44 ± 0.42 | 3.09 ± 0.67 | 5.84 ± 0.53 | 9.72 ± 1.2 | 4.54 ± 0.17 | 7.03 ± 0.37 | 5.83 ± 0.098 | 11.7 ± 0.24 | 4.14 ± 0.24

Source: the supplement of paper PMC11246515
